# Source: the supplement of paper PMC9170038
# Tested on: K4 kissing-loop RNA reporter
# Experiment: apparent KD of K4 kissing-loop reporter; higher = weaker reporter binding
# Details: Eterna round: R107
# Protocol: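 RNA-MaP round R107: designed RNA switches with theophylline, tryptophan, arginine or FMN aptamers are transcribed on-chip within common flanks. They are titrated with a labelled K4 kissing-loop RNA reporter in RNA-MaP buffer (100 mM Tris pH 7.5, 80 mM KCl, 4 mM MgCl2), without ligand or with the indicated ligand. Median apparent KD per design.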
# [1] = input ligand: theophylline 20 uM
# [2] = input ligand: tryptophan 2.4 mM
# 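Also: bound reporter read as fluorescence of individual clusters on recovered sequencing chips by microscopy, with normalized cluster intensities fitted with a binding model.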
Sequence,apparent KD of K4 kissing-loop reporter (input ligand: FMN 200 uM),apparent KD of K4 kissing-loop reporter (input ligand: arginine 13.2 mM),apparent KD of K4 kissing-loop reporter (input ligand: none),apparent KD of K4 kissing-loop reporter [1],apparent KD of K4 kissing-loop reporter [2]
UAUACGAAGCAGUGAUGUUGCUUAUGAGAAGGAGCGCACGAAAGUGCAGGUAGGUCGCUCAGCCAUGUGGACGAAAACGUCCACA [whbob_SS_Arginine_A_sa110],108 nM,130 nM,109 nM,137 nM,93 nM
CCUUGGAUUAGCUGUACUUUUCUACGGGAUACCAGUGCGUAACACCACCCUUGGCAGCCCGAUUACCGGCAGUGAUGUUGCCUCU [theeternabot_sameState_KL_Theo_A_41],185 nM,282 nM,244 nM,245 nM,192 nM
GGCUCCUACGCAGGAUAUAGUAGCCGAGAGUGAUGUUCUACGGCGUUUGCCGAUUUAGUCACAGAUCUAGAAGGGUGUAGGAGCC [XFMN-B PiClone],1040 nM,660 nM,1130 nM,756 nM,1000 nM
ACAUAGGAUGGAAGGAGCGCUCGUCAGUCCUGCGAGUGAUGUUCGUGGGUAAAUAUUCGCGAGCAGGUAGGUCGCCAUCUUGAAA [Vedi],109 nM,115 nM,158 nM,177 nM,164 nM
GGUAUCUAUACAGAUACCAGUCGUACGGCUGCAUUACAGGUUAGUGAUGUUAACCUGUACGACCCUUGGCAGCUGUAUAGUAGUA [#14 K4 Theophylline B Exclusion],115 nM,94 nM,115 nM,197 nM,104 nM
GUUACGCAUGGAAGGAGCGCGAAUUUAAUUAGUGAGUGAUGUUCACAUAAAAUGUAUAAUACGCAGGUAGGUCGCCAUGUGUAAC [whbob_Ex_Arginine_B_2th163],81.9 nM,84 nM,77.2 nM,85.7 nM,81.3 nM
GGAUGGUAGGCGGCCGCCACUAAAACUGAACACAUACAAGCCAGUGAUGUUGGUAUGAUGGAGUAUAGGACCGGGCCUAGAUAGA [Exclusion - Tryptophan B (Freestyle 4)],452 nM,367 nM,472 nM,420 nM,421 nM
AACUCUCAGACACUUGAGUGAUGUUCAGGCCGAGGACCGGUACGGCCGCCACUCGGGUCUGAGAGAGGUUAUCAAAGAUAGCCAA [Omei KL Tryp A SS A v5],350 nM,194 nM,249 nM,261 nM,273 nM
CCGAUACAUUAUUCUACGGCCGAGAGUGAUACCAGCCGUAUUUGUGGCCCUUGGCAGCGCAGAUGCAGUGAUGUUGCAUACUUGU [Same State Theophylline A GF 20],68.7 nM,93.7 nM,78.1 nM,96.6 nM,63.5 nM
CGCUGGGCGAGUGAUGUUCGCUCACGUGAUACCAGUGCAAUCCAACACCCUUGGCAGCACGCGGGCAGUGAUGUUGUCCUUAGUG [Exclusion Theophylline A GF12],160 nM,149 nM,157 nM,143 nM,127 nM
AAGUAGAUCAAGAUCUAGUAUCUAGAUCAACGAGGACCGGUACGGCCGCCACUCGAAUAAUAGAGUGAUGUUCUAAGAUCUACAA [AK1.4 SS Tryptophan A],898 nM,716 nM,994 nM,968 nM,445 nM
GCAUCCAUGUGAGGAUAUCGAGACGAGUGAUGUUCGGGCACCAGACAGGGAGACCUGUCAAUGGCUUGAGAAGGCACAUGGAUGC,231 nM,196 nM,249 nM,199 nM,217 nM
UGAUAGGACAGAAGGAGCGGGAGUGAUGUUCCCAAAAGGAUAAGGUGUCAAAAGACACCCUCCCAGGUAGGUCGCUGUCCUAUCU,577 nM,311 nM,663 nM,532 nM,544 nM
UGCUUUAUCAGAAGGAGCGCGUAAGUUAUACUAAUAAUCAGUGAUGUUGAUAUAUGAUCUUUGCAGGUAGGUCGCUGAUAUAGCU [KL-XARG-B4],452 nM,419 nM,532 nM,467 nM,472 nM
AGUGCUAUGACGGCCGCCACUGAUUACCAGUGAUGUUGGUAGUCCAUUUACGACUUCCUGAUAACCAGGACCGGGUCAUAGGUCG [Tryp B Ex t2],702 nM,613 nM,807 nM,450 nM,201 nM
GUCUGCUGUAUCGAUACCAGAAGUGGGCAGUGAUGUUGUUCGGGUACAUCGCGUCUCGAGUUCCCUUGGCAGCGAUUGUACGAAU [theeternabot_exclusion_KL_Theo_B_12],533 nM,571 nM,694 nM,835 nM,524 nM
UAGGGCAUCGCAGGAUAUCCUGCUUAACGUUGGAUUCCAGUGAUGUUGGAAAGUCGGCCUAGGGUAGGAGAAGGGCGAACUUGAA [Maxean],172 nM,157 nM,194 nM,195 nM,98.1 nM
AUCAUUAGUUCGGCCGCCACUCCAGUGAUGUUGGAGGGACGCAUAAUAUGCGCGCGGCCAACUAGGAGGACCGGGAACUUUAAGC [Intionge],120 nM,122 nM,118 nM,126 nM,103 nM
GUCUGUGUACUAGGAUAUGGUUGCAGGCAGUCAGGUCGCCUUUUCGGCGGCCAGUGAUGUUGGUGGCCAGAAGGAGUACGUGAUG [Raorin],776 nM,659 nM,731 nM,720 nM,699 nM
UAAUCUAACGAGAGUGAUGUUCUCGUCACAGAGGAUAUACGAUUUAGUAGAAGGCUGUUGGAUUCGCUUAAUGAUGACUAGAUUA [FMN A SS t1],242 nM,196 nM,223 nM,232 nM,205 nM
AAGCGUAAAAUGGCGGACAUACUGCUCCCACGAGGACCGGUACGGCCGCCACUCGAGUGCGGCAGUGAUGUUGCCGCCUUAGCGU [KL-XTryp-A20],92.9 nM,81.3 nM,92 nM,80.3 nM,81.9 nM
CGCAGUGAUGUUGCUAUUAUUCUUGAUUAACGAGGACCGGUACGGCCGCCACUCGAUUUCUAUCUAAUCCAGUGUUUUGUUGAGU [JR_ExcTryptoA_Sub002],324 nM,422 nM,346 nM,455 nM,240 nM

Sequence,apparent KD of K4 kissing-loop reporter (input ligand: FMN 200 uM),apparent KD of K4 kissing-loop reporter (input ligand: arginine 13.2 mM),apparent KD of K4 kissing-loop reporter (input ligand: none),apparent KD of K4 kissing-loop reporter [1],apparent KD of K4 kissing-loop reporter [2]
AUUUUGGUUUAGAGUGAUGUUCCUUGUAUUCGAGGACCGGUACGGCCGCCACUCGAAUAGAAAAGAAAAGAAAUGUUUGAUGUUU [BDazzled - #6 SS Tryptophan A],551 nM,193 nM,537 nM,274 nM,393 nM
AGACUACCACACUGUCAAUAGACAGUGAACUAGGAUAUGCUGAUAAGCAGAAGGAGUGAUGUUCCCAGGUAGUCAAUAAAAUAAU [FmnAX 13 C66],170 nM,185 nM,231 nM,331 nM,223 nM
AAGUGAUGUUGUAGUGAUGUUGUGAUGUUGCAGGAUAUAUAGUGAUGUAGAAGGGUAUGUACUUAUUUUUUUUUUGAGUUAUGUU [wzzwzrmullin],79.5 nM,33.4 nM,58 nM,46.2 nM,63.3 nM
AAGCAGUCUCUUGUAACCAUCGAAGAUGGACGAGGACCGGUACGGCCGCCACUCGGAGUGAUGUUCCGAAGACUGCAAAAUAAAA [MatMod 15 - Jieux - Exclusion - Tryptophan A],713 nM,712 nM,828 nM,1280 nM,1350 nM
UGGUUUAACUGAAGGAGCGGCAAUUGAUAAGUAGAUAUAGUGAUGUUAUAUAAGAUAGAGAGCCAGGUAGGUCGCAGAGGUGUUU [ExArgB.Q],208 nM,204 nM,232 nM,253 nM,189 nM
CUCUUCUUUCUUUUAGUGAUGUUAAAUUAGCGAGGACCGGUACGGCCGCCACUCGUAUAGCUGGAAUGACUGUGCGAGGGUUUGU,960 nM,514 nM,905 nM,522 nM,790 nM
ACUGAGUUGACGAAAGUCAACAAUUGAGAAGGAGCGCACGAAAGUGCAGGUAGGUCGCUCAGUCCAGUGAUGUUGGAUCAUCAGA [#17 K4 Arginine A Same State],324 nM,558 nM,383 nM,478 nM,275 nM
GGAGGUUGGUGCGAUACCAGACCAGCAGUGAUGUUGCGCCAAAGUGAGUGAUGUUCACCGGUCCCUUGGCAGCGCAUUCCUUUAG [Same State Theophylline B GF 14],964 nM,1110 nM,1440 nM,1120 nM,1110 nM
AAAUCGUUCAGAAGGAGCGUGAAUUAUUCUUAAUUAUAUUAUACGAGUGAUGUUCGUGUUUCACAGGUAGGUCGCUGAUCGAUAA [JR_SSArginiB_Sub005],94.4 nM,126 nM,95.6 nM,148 nM,84.1 nM
AAGGCACGGCUUCGGCCGUGCCAAAUAGAUACCAGCAUAAUAAUAUGCCCUUGGCAGCUAAAUAGAAAUUCAGUGAUGUUGGAUA [SS Theo A Tesla 2.1],597 nM,444 nM,601 nM,586 nM,649 nM
AGACUACCACACUGUCAAUAGACAGUGAGCUAGGAUAUGCUGAUAAGCAGAAGGAGUGAUGUUCCUGGGUAGUCAAUAAAAUAAU [FmnAX 13 G29+G67],399 nM,349 nM,362 nM,441 nM,342 nM
CAUAGGAAACUAUGUAUCUCUCUUACUGAAGGAGCGCGUGAAAACGCAGGUAGGUCGCAGAAUUUAAAAGAGAGUGAUGUUCUCU [Ex Arginine A K4 8],358 nM,253 nM,332 nM,247 nM,301 nM
UCAUCAUGAUGGUAGUAACCGCAUUGGGAGCGAGGACCGGUACGGCCGCCACUCGAAAUGUACAUAGCAGUAGUGAUGUUGCUGC [theeternabot_sameState_KL_Trp_A_47],134 nM,125 nM,121 nM,116 nM,115 nM
GAUAUAUAUAGAGGAUAUAGCAGGUGAUACAAGAAAGUGAGUGAUGUUUAUGUAGAUGAUGAUAUGUUAGAAGGCUAUAUAUAUC [radioactive7-modED1598],844 nM,736 nM,766 nM,723 nM,706 nM
GCAGUGAUGUUGCACGAGUAGGCUGGAGUACGAGGACCGGUACGGCCGCCACUCGUACGGAAGUCGCUAAUUUAUGGAAUGGUGA [#06 K4 Tryptophan A Same State],592 nM,381 nM,341 nM,413 nM,436 nM
UAAGACAUGAAAGGAUAUCCGAUAUGGAGCCUUUAGUGAUGUUAGGAGCUAGCCGUAGACAAGAUCGGAGAAGGUUCAACCCACA [theeternabot_sameState_KL_FMN_B_13],787 nM,506 nM,646 nM,705 nM,640 nM
CUUCGAUUAACGGAUACCAGUCACUUGGGAGCCACACACAAGUGAGUGAUGUUCACUUGUGACCCUUGGCAGCCGUUAGUCGAAG [#05 K4 Theophylline B Exclusion],106 nM,85 nM,99.4 nM,157 nM,97.9 nM
AGACUAUCGUCAAAGACGGUAGUCAAAAGUGAGGAUAUAGUGAUGUUUAGAAGGCACUAAGACUGUAUCGAAUAGAUACGGUCAA [FmnA 1 #K4BetweenAptamer #OpenEnded],2120 nM,1320 nM,2120 nM,1250 nM,1920 nM
UGACUGGAUGGAAGGAGCGCUAAACUCCUAGUGAUGUUAGGGAUAUGAGGCAAAGCCUUGAAGCAGGUAGGUCGCCAUCUAGUCU [FiskerMod 26 - Jieux - Same State - Arginine B],141 nM,126 nM,146 nM,146 nM,142 nM
CUGCAACAUAACUUCUUCGUCCUAGAAGACUAGGAUAUCAGGAAACUGAGAAGGAGUCUCUGCAGUGAUGUUGCAGCUAGGACGA [[K]'-[F2]'-[F1]'-[F1]-[F2]-[K1]-[K2]-[F]''_Design3],195 nM,159 nM,148 nM,197 nM,173 nM
AGUUAUGUAUCAGGAUAUUAGUGAUGUUUGUUUUUGUUAGUGAUGUUGAUAUUUGUUUUAUGUAUUUAAGAAGGGAUUGAGAUGU [qsszmullin],68.2 nM,20.5 nM,39.1 nM,29.4 nM,52.4 nM
